Measurements taken from EP1728802A2.

Columns and labels:
[1] = target: ErbB3 expressed on 4E9H3 cells (K562 cells stably transfected with erbB3 cDNA) (UniProt P21860); test: Scatchard analysis of competitive 125I-HRG binding to 4E9H3 cells, no antibody
[2] = target: ErbB3 expressed on 4E9H3 cells (K562 cells stably transfected with erbB3 cDNA) (UniProt P21860); test: Scatchard analysis of competitive 125I-HRG binding to 4E9H3 cells, in the presence of 100 nM 3-8D6 Fab
[3] = target: ErbB3 expressed on 4E9H3 cells (K562 cells stably transfected with erbB3 cDNA) (UniProt P21860); test: Scatchard analysis of competitive 125I-HRG binding to 4E9H3 cells, in the presence of 100 nM 3-8D6 IgG

Sequence of UniProt P21860 (P21860 20-1342 limits assumed): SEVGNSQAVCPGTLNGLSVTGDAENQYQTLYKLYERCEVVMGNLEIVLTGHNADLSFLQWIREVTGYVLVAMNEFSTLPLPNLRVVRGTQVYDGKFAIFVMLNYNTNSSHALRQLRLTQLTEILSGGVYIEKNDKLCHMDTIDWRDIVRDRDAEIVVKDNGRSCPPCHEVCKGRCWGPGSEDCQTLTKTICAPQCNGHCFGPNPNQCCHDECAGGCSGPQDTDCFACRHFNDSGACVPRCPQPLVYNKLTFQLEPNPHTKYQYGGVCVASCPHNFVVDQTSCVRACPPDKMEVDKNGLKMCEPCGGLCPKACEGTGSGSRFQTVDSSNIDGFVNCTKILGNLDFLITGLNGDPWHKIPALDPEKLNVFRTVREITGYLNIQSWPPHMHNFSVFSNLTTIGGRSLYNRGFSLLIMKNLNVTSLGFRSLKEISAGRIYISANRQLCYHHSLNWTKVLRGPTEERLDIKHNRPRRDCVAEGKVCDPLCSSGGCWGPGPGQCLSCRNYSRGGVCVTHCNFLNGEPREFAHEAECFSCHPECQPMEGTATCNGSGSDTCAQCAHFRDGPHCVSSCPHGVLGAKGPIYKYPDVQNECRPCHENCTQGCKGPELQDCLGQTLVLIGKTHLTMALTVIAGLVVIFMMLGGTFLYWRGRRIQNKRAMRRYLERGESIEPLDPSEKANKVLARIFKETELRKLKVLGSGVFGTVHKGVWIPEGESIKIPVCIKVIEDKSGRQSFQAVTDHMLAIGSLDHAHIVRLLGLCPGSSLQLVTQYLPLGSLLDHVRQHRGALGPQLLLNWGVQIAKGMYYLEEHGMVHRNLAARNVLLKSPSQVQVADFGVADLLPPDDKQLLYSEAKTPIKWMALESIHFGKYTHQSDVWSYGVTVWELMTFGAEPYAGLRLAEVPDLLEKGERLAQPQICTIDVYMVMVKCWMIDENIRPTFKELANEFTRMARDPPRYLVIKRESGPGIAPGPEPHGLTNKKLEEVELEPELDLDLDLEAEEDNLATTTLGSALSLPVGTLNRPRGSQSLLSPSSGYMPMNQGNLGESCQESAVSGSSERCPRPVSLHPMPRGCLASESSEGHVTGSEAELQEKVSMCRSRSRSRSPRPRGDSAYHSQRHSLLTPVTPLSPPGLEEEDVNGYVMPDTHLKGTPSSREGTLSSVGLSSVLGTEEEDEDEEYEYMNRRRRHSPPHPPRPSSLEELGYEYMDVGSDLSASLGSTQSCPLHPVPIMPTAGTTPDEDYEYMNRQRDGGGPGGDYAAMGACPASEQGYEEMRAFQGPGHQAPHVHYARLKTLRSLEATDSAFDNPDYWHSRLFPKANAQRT

- Kd [1]: 1200 pM
- Sites/Cell [1]: 360000 sites/cell
- Kd [2]: 280 pM
- Sites/Cell [2]: 290000 sites/cell
- Kd [3]: 210 pM
- Sites/Cell [3]: 240000 sites/cell
Substance: HRGβ1(177-244), EGF-like domain of the β1 isoform of heregulin (from UniProt Q02297 177-244) (ligand)
